# Test results reported in patent US20200299389A1 (AP BIOSCIENCES, published 2020).
# Legend:
# [1] = molecular target: recombinant PD-L1 protein (UniProt Q9NZQ7 19-238, limits assumed); experiment: direct ELISA on coated recombinant PD-L1, anti-human F(ab')2-HRP detection
# murine PD-L1 = molecular target: T1, murine PD-L1 (murine, UniProt Q9EP73 19-238, limits assumed); experiment: not described
# T1 construct: also called rodent PD-L1
# T1 sequence (Q9EP73 19-238 limits assumed): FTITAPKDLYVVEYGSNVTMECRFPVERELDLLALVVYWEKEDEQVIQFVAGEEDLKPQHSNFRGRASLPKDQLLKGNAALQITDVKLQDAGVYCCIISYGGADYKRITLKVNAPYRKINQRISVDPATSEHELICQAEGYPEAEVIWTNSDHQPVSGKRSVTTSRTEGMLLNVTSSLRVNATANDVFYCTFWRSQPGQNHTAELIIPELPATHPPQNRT
# recombinant PD-L1 protein, sequence (Q9NZQ7 19-238 limits assumed): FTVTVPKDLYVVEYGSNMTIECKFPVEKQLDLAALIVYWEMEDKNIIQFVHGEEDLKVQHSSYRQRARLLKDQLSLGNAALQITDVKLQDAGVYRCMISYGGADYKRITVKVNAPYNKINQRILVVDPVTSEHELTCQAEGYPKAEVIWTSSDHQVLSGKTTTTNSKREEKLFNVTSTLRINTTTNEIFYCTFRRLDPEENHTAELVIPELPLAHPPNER
binder,measurement,setting,value
"anti-PD-L1 antibody clone 6 (antibody, V domains shown, also called PD-L1-Clone 6; anti-PD-L1 clone 6 antibody) VH: QVQLVQSGAEVKKPGSSVKVSCKASGGTFRRYSISWVRQAPGQGLEWMGGIIPVFGAAKYAQKFQGRVTITADEFTSTAYMELSSLTSEDTAVYYCALSGDSDAFDIWGQGTMVTVSS VL: not shown",EC50,[1],0.1 nM
same,binding result,murine PD-L1,no binding
